Target: T1, bovine serum albumin (Bos taurus, UniProt P02769)
T1 construct: also called BSA
Test: ELISA
Conditions: both partners purified

T1 sequence (P02769 25-607): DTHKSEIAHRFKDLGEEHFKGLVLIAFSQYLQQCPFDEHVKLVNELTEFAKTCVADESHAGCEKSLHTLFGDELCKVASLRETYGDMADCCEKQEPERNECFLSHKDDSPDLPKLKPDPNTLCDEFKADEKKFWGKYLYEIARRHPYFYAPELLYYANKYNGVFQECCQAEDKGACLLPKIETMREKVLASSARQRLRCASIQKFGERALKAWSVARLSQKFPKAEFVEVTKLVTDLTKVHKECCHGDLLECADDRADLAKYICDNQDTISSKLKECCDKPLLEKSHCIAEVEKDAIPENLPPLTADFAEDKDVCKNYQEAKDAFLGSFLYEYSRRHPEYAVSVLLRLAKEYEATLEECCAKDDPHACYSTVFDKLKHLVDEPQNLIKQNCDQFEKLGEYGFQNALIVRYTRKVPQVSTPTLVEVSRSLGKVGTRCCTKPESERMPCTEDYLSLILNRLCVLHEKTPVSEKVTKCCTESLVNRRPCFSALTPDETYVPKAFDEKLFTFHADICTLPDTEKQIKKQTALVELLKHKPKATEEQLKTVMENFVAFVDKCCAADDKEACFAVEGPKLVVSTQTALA

B1: fluorescein-specific VHH-D4 (VHH)
VHH: QVQLVESGGALVQPGGSLRLSCAASGFTFGSFSMSWYRQATGKEREWVAGLSAGSSSTYYADSVKGRFTISRDNARNTVYLQMNSLKPEDTAVYYCARRTNTSSGSAGSFSTCIDDWGQGTQVTVSS
notes: also called clone D4
binding result: no binding

Source: publication PMC6274671 (International Journal of Molecular Sciences, 2018)
